The results in this text go back to article PMC9986279, “Biochemical and genetic examination of two aminotransferases from the hyperthermophilic archaeon Thermococcus kodakarensis” (Frontiers in Microbiology, 2023).

By Km is commonly meant the concentration of substrate that gives half-maximal velocity. In general, Vmax refers to the rate approached at saturating substrate. Usually kcat stands for the number of substrate molecules converted per active site and unit of time at saturation. The term kcat/Km denotes the second-order rate constant that governs catalysis at low substrate concentration.

For one series, the target named is T1, TK2268 protein (Thermococcus kodakarensis, UniProt Q5JHU0).
T1 construct: full length, C-terminal His6-tag kept, expressed in T. kodakarensis KPD2; monomer 45,116 Da; dimer (98 kDa) that may assemble to octamer (327 kDa)
Briefly: aminotransferase activity with and without added PLP. In kind it is biochemical. The note with it: 20 μM PLP, 50 mM HEPES pH 7.4, 80°C.

Another series deals with T2, TK0548 protein (Thermococcus kodakarensis, UniProt Q5JF51).
T2 construct: full length, no tag (own stop codon in primer), pET21a(+), E. coli BL21-CodonPlus(DE3)-RIL; monomer 43,608 Da, dimer (85 kDa)
T2 sequence (Q5JF51 1-389): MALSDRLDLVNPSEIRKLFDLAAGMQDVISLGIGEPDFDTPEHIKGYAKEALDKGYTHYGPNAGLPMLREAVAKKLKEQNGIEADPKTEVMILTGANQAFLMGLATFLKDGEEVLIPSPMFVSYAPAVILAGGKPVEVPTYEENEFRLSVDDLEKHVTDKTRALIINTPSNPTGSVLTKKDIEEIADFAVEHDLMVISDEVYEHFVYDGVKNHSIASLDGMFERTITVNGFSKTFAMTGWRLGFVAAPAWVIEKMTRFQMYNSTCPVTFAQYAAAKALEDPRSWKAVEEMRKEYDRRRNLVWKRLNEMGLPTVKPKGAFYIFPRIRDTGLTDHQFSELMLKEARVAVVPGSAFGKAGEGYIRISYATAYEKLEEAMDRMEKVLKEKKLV
The description is as above. The conditions noted are these: 20 μM PLP, 50 mM HEPES pH 7.4, 80°C. Format: biochemical.

Substrate in the series “purified protein”: N[C@@H](CC(=O)O)C(=O)O
Briefly: purified protein. The conditions noted are these: 10 mM pyruvate, 20 μM PLP, 50 mM HEPES pH 7.4, 80°C.

Substrate in series [1]: CC(=O)C(=O)O
Briefly: aminotransferase assay, Ala formed quantified by HPLC after o-phthalaldehyde derivatization. In kind it is biochemical, Thermococcus kodakarensis. The note with it: 50 mM Leu, 20 μM PLP, 50 mM HEPES pH 7.4, 80°C. From the text: (§1) aminotransferase assay, Ala formed quantified by HPLC after o-phthalaldehyde derivatization on TK2268 protein

Substrate in series [2]: CC(C)C[C@H](N)C(=O)O
The description is as above. In kind it is biochemical, Thermococcus kodakarensis. The conditions noted are these: 10 mM pyruvate, 20 μM PLP, 50 mM HEPES pH 7.4, 80°C.
Excerpt: as §1

Substrate in series [3]: N[C@@H](CCC(=O)O)C(=O)O
The description is as above. In kind it is biochemical, Thermococcus kodakarensis. The note with it: 10 mM pyruvate, 20 μM PLP, 50 mM HEPES pH 7.4, 80°C.
Excerpt: as §1

Substrate in series [4]: N[C@@H](Cc1ccc(O)cc1)C(=O)O
Briefly: aminotransferase assay, Glu formed quantified by HPLC after o-phthalaldehyde derivatization. The note with it: 10 mM 2-oxoglutarate, 20 μM PLP, 50 mM HEPES pH 7.4, 80°C. In kind it is biochemical, Thermococcus kodakarensis. From the text:
(§2) aminotransferase assay, Glu formed quantified by HPLC after o-phthalaldehyde derivatization on TK2268 protein

Substrate in series [5]: O=C(O)CCC(=O)C(=O)O
The series is described as above. The note with it: 50 mM Leu, 20 μM PLP, 50 mM HEPES pH 7.4, 80°C. In kind it is biochemical, Thermococcus kodakarensis.
Excerpt: as §2

Substrate in series [6]: CC(=O)C(=O)O
Briefly: aminotransferase assay, Ala formed quantified by HPLC after o-phthalaldehyde derivatization. The conditions noted are these: 10 mM Phe, 20 μM PLP, 50 mM HEPES pH 7.4, 80°C. In kind it is biochemical, Thermococcus kodakarensis. The source says: aminotransferase assay, Ala formed quantified by HPLC after o-phthalaldehyde derivatization on TK0548 protein

Substrate in series [7]: CSCC[C@H](N)C(=O)O
Briefly: aminotransferase assay, Glu formed quantified by HPLC after o-phthalaldehyde derivatization. The conditions noted are these: 10 mM 2-oxoglutarate, 20 μM PLP, 50 mM HEPES pH 7.4, 80°C. Format: biochemical, Thermococcus kodakarensis. The source says:
(§3) aminotransferase assay, Glu formed quantified by HPLC after o-phthalaldehyde derivatization on TK0548 protein

Substrate in series [8]: N[C@@H](Cc1c[nH]c2ccccc12)C(=O)O
The series is described as above. Format: biochemical, Thermococcus kodakarensis. The conditions noted are these: 10 mM 2-oxoglutarate, 20 μM PLP, 50 mM HEPES pH 7.4, 80°C.
Excerpt: as §3

Substrate in series [9]: N[C@@H](Cc1c[nH]cn1)C(=O)O
The series is described as above. In kind it is biochemical, Thermococcus kodakarensis. The note with it: 10 mM 2-oxoglutarate, 20 μM PLP, 50 mM HEPES pH 7.4, 80°C.
Excerpt: as §3

Substrate in series [10]: N[C@@H](Cc1ccc(O)cc1)C(=O)O
The description is as above. Format: biochemical, Thermococcus kodakarensis. The note with it: 10 mM 2-oxoglutarate, 20 μM PLP, 50 mM HEPES pH 7.4, 80°C.
Excerpt: as §3
The source holds these as a separate data set.

Substrate in series [11]: N[C@@H](Cc1ccccc1)C(=O)O
The description is as above. The note with it: 10 mM 2-oxoglutarate, 20 μM PLP, 50 mM HEPES pH 7.4, 80°C. In kind it is biochemical, Thermococcus kodakarensis.
Excerpt: as §3

Substrate in series [12]: O=C(O)CCC(=O)C(=O)O
The series is described as above. In kind it is biochemical, Thermococcus kodakarensis. The conditions noted are these: 10 mM Phe, 20 μM PLP, 50 mM HEPES pH 7.4, 80°C.
Excerpt: as §3

On to `Cc1ncc(COP(=O)(O)O)c(C=O)c1O` [pyridoxal 5′-phosphate], for which the “aminotransferase activity with and without added PLP” value is “suggesting that the TK0548 and TK2268 proteins are PLP-dependent aminotransferases” at TK2268 protein; “suggesting that the TK0548 and TK2268 proteins are PLP-dependent aminotransferases” at TK0548 protein.

B1: TK2268 protein (Thermococcus kodakarensis KOD1) (protein)
chain: MRYKKRKYFMAGRINILQRSKIRELFEKASKMENVISLGIGEPDFDTPEVIKEAAKRAIDEGYTHYTPNAGIPEFREAIAEYYKEFYNVDVDMNNIIVTAGAYEATYLAFESILEQGDDVIIPDPAFVCYVEDAKIAEAGIIRIPLREENKFRIDPDELLEAITKRTRMIVMNYPNNPTGAIMKKDVAKAIADIAQDYNIYILSDEPYEHFLYEGARHHPMIKYAPDNTILANSFSKTFAMTGWRLGFAIAPEQVIRDMIKLHAYVIGNVTSFIQIAGITALRDKRSWEAVERMRQVYDERRKLVLKYLNDMPHITPFRPKGAFYIWAKIDPELDMTSEDFAEWLLENAGVVVIPGTAFGRQGEGWIRISYATEKEKLIEAMERMKEALSKL
notes: full length, C-terminal His6-tag kept, expressed in T. kodakarensis KPD2; monomer 45,116 Da; dimer (98 kDa) that may assemble to octamer (327 kDa)
As for B1, the Km worked out at 2140 ± 220 µM in the series “purified protein”; 2720 ± 350 µM in [1]; 36300 ± 4300 µM in series [2]; 2170 ± 270 µM in series [3]; 1450 ± 260 µM in series [4]; 190 ± 30 µM in series [5]. For the same molecule, the Vmax amounted to 5.42 µmol/min/mg in “purified protein”; 3.76 µmol/min/mg in [1]; 4.68 µmol/min/mg in series [2]; 7.42 µmol/min/mg in series [3]; 0.34 µmol/min/mg in series [4]; 4.45 µmol/min/mg in series [5]. Also, the kcat in “purified protein” came to 4.07 s⁻¹; in [1] it was 2.83 ± 0.16 s⁻¹; in [2], 3.52 ± 0.23 s⁻¹; in series [3], 5.57 ± 0.23 s⁻¹; in series [4], 0.26 ± 0.02 s⁻¹; in series [5], 3.35 ± 0.15 s⁻¹. The kcat/Km in “purified protein” amounted to 1900 M⁻¹ s⁻¹; in [1], 1040 M⁻¹ s⁻¹; in series [2], 100 M⁻¹ s⁻¹; in series [3] it was 2570 M⁻¹ s⁻¹; in [4] it was 180 M⁻¹ s⁻¹; in series [5], 17600 M⁻¹ s⁻¹.

B2: TK0548 protein (Thermococcus kodakarensis KOD1) (protein)
chain: T2 sequence (Q5JF51 1-389)
notes: full length, no tag (own stop codon in primer), pET21a(+), E. coli BL21-CodonPlus(DE3)-RIL; monomer 43,608 Da, dimer (85 kDa)
Take B2: the Km in [6] was determined as 48000 ± 5000 µM; in series [7], 64000 ± 9000 µM; in series [8], 1100 ± 100 µM; in series [9], 4400 ± 400 µM; in series [10] it was 1400 ± 200 µM; in series [11], 670 ± 60 µM. Also, the Km in series [12] came out at 1500 ± 200 µM. For the same molecule, the Vmax in series [6] came to 137 µmol/min/mg; in series [7], 169 µmol/min/mg; in series [8] it was 359 µmol/min/mg; in series [9], 179 µmol/min/mg; in series [10], 419 µmol/min/mg; in series [11], 483 µmol/min/mg. Further, in series [12], the Vmax worked out at 334 µmol/min/mg. Also, the kcat in series [6] was 100 ± 7 s⁻¹; in series [7] it was 123 ± 14 s⁻¹; in series [8] it was 261 ± 10 s⁻¹; in series [9], 130 ± 6 s⁻¹; in series [10], 305 ± 19 s⁻¹; in [11], 351 ± 10 s⁻¹. For the same molecule, the kcat in [12] worked out at 243 ± 10 s⁻¹. The kcat/Km in [6] came to 2070 M⁻¹ s⁻¹; in series [7], 1920 M⁻¹ s⁻¹; in [8], 237000 M⁻¹ s⁻¹; in series [9] it was 29600 M⁻¹ s⁻¹; in series [10] it was 218000 M⁻¹ s⁻¹; in series [11], 524000 M⁻¹ s⁻¹. Moreover, in [12], the kcat/Km is 162000 M⁻¹ s⁻¹.
